From paper PMC10907699, “The IRE1β-mediated unfolded protein response is repressed by the chaperone AGR2 in mucin producing cells” (The EMBO Journal, 2023)

B1: mouse AGR2 (21-175), wild-type [mouse] / MBP-hIRE1b_LD_(35-428)-AviTag-His7 [modified: biotin on the AviTag (endogenous biotinylation of a fraction of the protein in E. coli); biotin on the AviTag (endogenous biotinylation of a fraction of … (parent complex)
chain 1: KDTTVKSGAKKDPKDSRPKLPQTLSRGWGDQLIWTQTYEEALYRSKTSNRPLMVIHHLDECPHSQALKKVFAEHKEIQKLAEQFVLLNLVYETTDKHLSPDGQYVPRIVFVDPSLTVRADITGRYSNRLYAYEPSDTALLYDNMKKALKLLKTEL
chain 2: LRPENLLLVSTLDGSLHALSKQTGDLKWTLRDDPVIEGPMYVTEMAFLSDPADGSLYILGTQKQQGLMKLPFTIPELVHASPCRSSDGVFYTGRKQDAWFVVDPESGETQMTLTTEGPSTPRLYIGRTQYTVTMHDPRAPALRWNTTYRRYSAPPMDGSPGKYMSHLASCGMGLLLTVDPGSGTVLWTQDLGVPVMGVYTWHQDGLRQLPHLTLARDTLHFLALRWGHIRLPASGPRDTATLFSTLDTQLLMTLYVGKDETGFYVSKALVHTGVALVPRGLTLAPADGPTTDEVTLQVSGEREGSPSTAVRYPSGSVALPSQWLLIGHHELPPVLHTTMLRVHPTLGSGTAETRPPENTQAPAFFLELLSLSREKLWDSELHPEEKTPDSYLGL

Variants of: B1
Assay: BLI; HK buffer supplemented with 0.05% Triton X-100 and 1 mM TCEP; 30 °C; IRE1β LD probe immobilised on streptavidin biosensors; parent: 19 nM

screen value | Variant
124 µM | chain 1 C61S
78.5 µM | chain 1 C61E

Variants of: B1
Assay: BLI; 90 µM AGR2 variant (highest concentration point); HK buffer supplemented with 0.05% Triton X-100 and 1 mM TCEP; 30 °C; parent: 0.6; read off a plot

response | Variant
~0.3 nm | chain 1 C61S
~0.23 nm | chain 1 C61E
